PMC10458388 (2023)

Biological target: C-terminus of human Hsp90α (residues 566-732) (Homo sapiens (Human), UniProt P07900)
Assay: SEC-MALS-QELS

Sequence of C-terminus of human Hsp90α (residues 566-732) (P07900 566-732): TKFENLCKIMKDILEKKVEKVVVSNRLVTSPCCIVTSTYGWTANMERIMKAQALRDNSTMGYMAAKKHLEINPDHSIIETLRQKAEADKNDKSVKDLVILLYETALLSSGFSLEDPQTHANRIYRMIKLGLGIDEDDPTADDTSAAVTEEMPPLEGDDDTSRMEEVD

B1: Sorghum bicolor RPAP3 (RNA polymerase II-associated protein 3), isoform 2 (protein)
chain: MEYKARSSGTSGTSTKSFRDLYNMKYSSYLNDEPMPDATSEKEQGNEYFKQKKFADAIECYSRSIGLSPTAVTFANRAMAYLKLRRFKEAEDDCTEALNLDDRYIKAYSRRITARKELGKLKEAMEDAEFAISLDPNNPELRKQYSEIKALHMEKMAKKVPAPAKRAVSGIAKTADVTSHPPTISQKDTIMEVDPPVGDAMKIRESASGRSNGGSGVIINDNTIQTQGRDANLKPGPEVSVQDLAARAASRYMASTVKSVKTPKTAYDFEVSWRALSDDTAQQIQLLKSIPPASLPEIFKNALSAPFLIDIVKCSASIFRDDTALAVSILENLARVPRFDLIIMCLSSMHKSELRKIWDQVFLAEKASADDQMEALRQLRGRYIPGGWQDSMLTSS
- binding result: binds
